{"source": "paper PMC4582117", "about": "“VEGF-A/NRP1 stimulates GIPC1 and Syx complex formation to promote RhoA activation and proliferation in skin cancer cells” (Biology Open, 2015)", "binders": {"B1": {"name": "TAT-EGFP-peptide 1 (STLTASEV), the Targeted peptide (peptide)", "chain": "GSTLTASEV", "notes": "Detected with anti-GFP; also called Target peptide; not shown: EGFP, N-terminal, kept"}}, "biological_target": "T1, HA-tagged GIPC1 (GAIP interacting protein C terminus) (UniProt O14908 1-333)", "T1 construct": "GIPC1, scaffold protein with a PDZ domain; The plasmid list begins with 'Human NRP1WT, HA-tagged GIPC1, ...'; it is not clear whether 'Human' also covers GIPC1; also called GIPC1 (HA); source: HEK293T, transfected (pcDNA 3.1 TOPO, FuGENE6), in lysate", "T1 sequence (looked up)": "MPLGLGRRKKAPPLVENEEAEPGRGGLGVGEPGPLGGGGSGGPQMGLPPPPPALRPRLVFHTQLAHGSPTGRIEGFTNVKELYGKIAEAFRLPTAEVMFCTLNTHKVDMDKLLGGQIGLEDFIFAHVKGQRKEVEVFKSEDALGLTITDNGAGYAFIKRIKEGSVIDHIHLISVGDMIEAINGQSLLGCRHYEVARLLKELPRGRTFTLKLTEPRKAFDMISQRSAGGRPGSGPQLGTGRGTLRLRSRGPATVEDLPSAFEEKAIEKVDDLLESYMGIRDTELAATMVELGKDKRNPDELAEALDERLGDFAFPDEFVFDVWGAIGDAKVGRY", "assay": "co-IP; Scrambled or Targeted peptide mixed with lysate of HEK293T overexpressing HA-GIPC1, 1 h rotation at 4°C; co-immunoprecipitated with GIPC1; blot with anti-GFP", "settings": "one partner purified"}
{"binder": "B1", "values": [{"measurement": "fold binding over the Scrambled peptide", "value": 3, "unit": "fold"}]}
